From PMC6702080 (2019)

Molecular target: T1, BolA2 (Homo sapiens, UniProt Q9H3K6)
T1 chain: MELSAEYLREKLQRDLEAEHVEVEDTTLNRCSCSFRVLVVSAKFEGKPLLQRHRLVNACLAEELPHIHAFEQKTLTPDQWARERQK
Test: pull-down

Kd: 900 nM
B1: PCBP1 KH3 (protein)
chain: ASTQTTHELTIPNNLIGCIIGRQGANINEIRQMSGAQIKIANPVEGSSGRQVTITGSAASISLAQYLINAR
modifications: Fe(II)+GSH
